Assay results as given in patent US20260167721A1 (ABLEXIS, published 2026).

Experiments:
[1] = target: T1, human CD3 (on human Pan-T cells or donor PBMC) (human, UniProt P07766 23-207; P04234 22-171; P09693 23-182; P20963 22-164); assay: cell-based or functional assay
[2] = target: T1, human CD3 (on human Pan-T cells or …); assay: cell-based or functional assay; remark: listed apart in the source

T1 sequence (P07766 23-207, chain 1 of 4): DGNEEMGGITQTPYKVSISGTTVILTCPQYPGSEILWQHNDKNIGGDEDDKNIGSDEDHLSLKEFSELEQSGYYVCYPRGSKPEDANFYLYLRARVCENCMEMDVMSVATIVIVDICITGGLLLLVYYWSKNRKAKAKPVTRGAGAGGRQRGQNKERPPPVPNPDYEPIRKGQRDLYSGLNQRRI
T1 sequence (P04234 22-171, chain 2 of 4): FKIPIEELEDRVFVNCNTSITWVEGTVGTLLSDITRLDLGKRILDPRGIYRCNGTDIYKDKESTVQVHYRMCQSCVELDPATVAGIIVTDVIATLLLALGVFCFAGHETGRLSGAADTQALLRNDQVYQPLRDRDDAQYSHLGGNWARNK
T1 sequence (P09693 23-182, chain 3 of 4): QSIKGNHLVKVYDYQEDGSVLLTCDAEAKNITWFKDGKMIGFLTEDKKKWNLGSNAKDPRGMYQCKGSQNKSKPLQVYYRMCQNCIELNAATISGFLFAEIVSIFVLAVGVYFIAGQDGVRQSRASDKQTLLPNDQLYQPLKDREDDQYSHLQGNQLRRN
T1 sequence (P20963 22-164, chain 4 of 4): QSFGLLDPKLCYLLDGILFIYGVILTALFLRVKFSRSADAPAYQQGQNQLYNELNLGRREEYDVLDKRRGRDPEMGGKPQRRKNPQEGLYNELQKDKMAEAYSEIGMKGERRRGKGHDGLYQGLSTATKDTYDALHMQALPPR

| Binder | RTCC Assay, Donor 0, EC50 [1] | RTCC Assay, Donor 0, gMFI max [1] | RTCC Assay, Donor 1, EC50 [1] | RTCC Assay, Donor 1, gMFI max [1] | RTCC Assay, Donor 2, EC50 [1] | RTCC Assay, Donor 2, gMFI max [1] | RTCC Assay, Donor 3, EC50 [1] | RTCC Assay, Donor 3, gMFI max [1] | Cytokine Release Assay (IFNγ), Donor 0, EC50 [2] | Cytokine Release Assay (IFNγ), Donor 0, gMFI max [2] | Cytokine Release Assay (IFNγ), Donor 1, EC50 [2] | Cytokine Release Assay (IFNγ), Donor 1, gMFI max [2] | Cytokine Release Assay (IFNγ), Donor 2, EC50 [2] | Cytokine Release Assay (IFNγ), Donor 2, gMFI max [2] | Cytokine Release Assay (IFNγ), Donor 3, EC50 [2] | Cytokine Release Assay (IFNγ), Donor 3, gMFI max [2] |
| --- | --- | --- | --- | --- | --- | --- | --- | --- | --- | --- | --- | --- | --- | --- | --- | --- |
| CD3 × CD33-BspAb51 (bispecific antibody) chain 1: not shown chain 2: EVQLVQSGAEVKKPGSSVKVSCKASGYTITDSNIHWVRQAPGQSLEWIGYIYPYNGGTDYNQKFKNRATLTVDNPTNTAYMELSSLRSEDTAFYYCVNGNPWLAYWGQGTLVTVSSASTKGPSVFPLAPSSKSTSGGTAALGCLVKDYFPEPVTVSWNSGALTSGVHTFPAVLQSSGLYSLSSVVTVPSSSLGTQTYICNVNHKPSNTKVDKRVEPKSCDKTHTCPPCPAPEFEGGPSVFLFPPKPKDTLMISRTPEVTCVVVDVSHEDPEVKFNWYVDGVEVHNAKTKPREEQYNSTYRVVSVLTVLHQDWLNGKEYKCKVSNKALPASIEKTISKAKGQPREPQVCTLPPSREEMTKNQVSLSCAVKGFYPSDIAVEWESNGQPENNYKTTPPVLDSDGSFFLVSKLTVDKSRWQQGNVFSCSVMHEALHNRFTQKSLSLSPGK chain 3: DIQLTQSPSTLSASVGDRVTITCRASESLDNYGIRFLTWFQQKPGKAPKLLMYAASNQGSGVPSRFSGSGSGTEFTLTISSLQPDDFATYYCQQTKEVPWSFGQGTKVEVKRTVAAPSVFIFPPSDEQLKSGTASVVCLLNNFYPREAKVQWKVDNALQSGNSQESVTEQDSKDSTYSLSSTLTLSKADYEKHKVYACEVTHQGLSSPVTKSFNRGEC | 0.2 nM | 28400 gMFI | 0.036 nM | 66900 gMFI | 0.05 nM | 55800 gMFI | 0.085 nM | 80600 gMFI | 0.269 nM | 1.34e+06 gMFI | 15.3 nM | 10800 gMFI | 0.292 nM | 30600 gMFI | 0.214 nM | 355000 gMFI |
| CD3 × CD33-BspAb73 (bispecific antibody) chain 1: EVQLVESGGGLVKPGGSLRLSCAASGFTFSSYSMNWVRQAPGKCLEWVSSVNSRGSYIYYADSVKGRFTISRDNAKDSLYLQMNSLRADDTAVYYCARDRRELLLDYWGQGTLVTVSSGGGGSGGGGSGGGGSGGGGSSYELTQPPSVSVSPGQTARITCSGDALPKKYAYWYQQKSGQAPVLVIYEDSKRPSGIPERFSGSSSGTMATLTISGAQVEDEADYYCYSTDSSGNHSWVFGCGTKLTVLDKTHTCPPCPAPEFEGGPSVFLFPPKPKDTLMISRTPEVTCVVVDVSHEDPEVKFNWYVDGVEVHNAKTKPREEQYNSTYRVVSVLTVLHQDWLNGKEYKCKVSNKALPASIEKTISKAKGQPREPQVYTLPPCREEMTKNQVSLWCLVKGFYPSDIAVEWESNGQPENNYKTTPPVLDSDGSFFLYSKLTVDKSRWQQGNVFSCSVMHEALHNHYTQKSLSLSPGK chain 2: EVQLVQSGAEVKKPGSSVKVSCKASGYTITDSNIHWVRQAPGQSLEWIGYIYPYNGGTDYNQKFKNRATLTVDNPTNTAYMELSSLRSEDTAFYYCVNGNPWLAYWGQGTLVTVSSASTKGPSVFPLAPSSKSTSGGTAALGCLVKDYFPEPVTVSWNSGALTSGVHTFPAVLQSSGLYSLSSVVTVPSSSLGTQTYICNVNHKPSNTKVDKRVEPKSCDKTHTCPPCPAPEFEGGPSVFLFPPKPKDTLMISRTPEVTCVVVDVSHEDPEVKFNWYVDGVEVHNAKTKPREEQYNSTYRVVSVLTVLHQDWLNGKEYKCKVSNKALPASIEKTISKAKGQPREPQVCTLPPSREEMTKNQVSLSCAVKGFYPSDIAVEWESNGQPENNYKTTPPVLDSDGSFFLVSKLTVDKSRWQQGNVFSCSVMHEALHNRFTQKSLSLSPGK chain 3: DIQLTQSPSTLSASVGDRVTITCRASESLDNYGIRFLTWFQQKPGKAPKLLMYAASNQGSGVPSRFSGSGSGTEFTLTISSLQPDDFATYYCQQTKEVPWSFGQGTKVEVKRTVAAPSVFIFPPSDEQLKSGTASVVCLLNNFYPREAKVQWKVDNALQSGNSQESVTEQDSKDSTYSLSSTLTLSKADYEKHKVYACEVTHQGLSSPVTKSFNRGEC | 0.086 nM | 15600 gMFI | 0.035 nM | 79900 gMFI | 0.089 nM | 56100 gMFI | 0.159 nM | 74000 gMFI |  | 308000 gMFI |  | 4350 gMFI | 8.61 nM | 26900 gMFI | 4.64 nM | 198000 gMFI |
| CD3 × CD33-BspAb66 (bispecific antibody, human IgG1, kappa) scFv: EVQLVESGGGLVQPGRSLRLSCAASGFTFDDYAMHWVRQAPGKGLEWVSGISWNSGSIGYADSVKGRFTISRDNAKNSLYLQMNSLRAEDTALYYCAKDSRGYGDYRLGGAYWGQGTLVTVSSGGGGSGGGGSGGGGSGGGGSEIVMTQSPATLSVSPGERATLSCRASQSVSSNLAWYQQKPGQAPRLLIYGASTRATGIPARFSGSGSGTEFTLTISSLQSEDFAVYYCQQYNNWPWTFGQGTKVEIKTSGPGGPDKTHTCPPCPAPEFEGGPSVFLFPPKPKDTLMISRTPEVTCVVVDVSHEDPEVKFNWYVDGVEVHNAKTKPREEQYNSTYRVVSVLTVLHQDWLNGKEYKCKVSNKALPASIEKTISKAKGQPREPQVYTLPPCREEMTKNQVSLWCLVKGFYPSDIAVEWESNGQPENNYKTTPPVLDSDGSFFLYSKLTVDKSRWQQGNVFSCSVMHEALHNHYTQKSLSLSPGK heavy: EVQLVQSGAEVKKPGSSVKVSCKASGYTITDSNIHWVRQAPGQSLEWIGYIYPYNGGTDYNQKFKNRATLTVDNPTNTAYMELSSLRSEDTAFYYCVNGNPWLAYWGQGTLVTVSSASTKGPSVFPLAPSSKSTSGGTAALGCLVKDYFPEPVTVSWNSGALTSGVHTFPAVLQSSGLYSLSSVVTVPSSSLGTQTYICNVNHKPSNTKVDKRVEPKSCDKTHTCPPCPAPEFEGGPSVFLFPPKPKDTLMISRTPEVTCVVVDVSHEDPEVKFNWYVDGVEVHNAKTKPREEQYNSTYRVVSVLTVLHQDWLNGKEYKCKVSNKALPASIEKTISKAKGQPREPQVCTLPPSREEMTKNQVSLSCAVKGFYPSDIAVEWESNGQPENNYKTTPPVLDSDGSFFLVSKLTVDKSRWQQGNVFSCSVMHEALHNRFTQKSLSLSPGK light: DIQLTQSPSTLSASVGDRVTITCRASESLDNYGIRFLTWFQQKPGKAPKLLMYAASNQGSGVPSRFSGSGSGTEFTLTISSLQPDDFATYYCQQTKEVPWSFGQGTKVEVKRTVAAPSVFIFPPSDEQLKSGTASVVCLLNNFYPREAKVQWKVDNALQSGNSQESVTEQDSKDSTYSLSSTLTLSKADYEKHKVYACEVTHQGLSSPVTKSFNRGEC | 2.92 nM | 29700 gMFI | 0.937 nM | 65800 gMFI | 1.85 nM | 53900 gMFI | 2.33 nM | 75900 gMFI | 12.9 nM | 1.25e+06 gMFI |  | 7650 gMFI | 22.9 nM | 28300 gMFI | 52.6 nM | 379000 gMFI |
| CD3 × CD33-BspAb52 (bispecific antibody) chain 1: not shown chain 2: EVQLVQSGAEVKKPGSSVKVSCKASGYTITDSNIHWVRQAPGQSLEWIGYIYPYNGGTDYNQKFKNRATLTVDNPTNTAYMELSSLRSEDTAFYYCVNGNPWLAYWGQGTLVTVSSASTKGPSVFPLAPSSKSTSGGTAALGCLVKDYFPEPVTVSWNSGALTSGVHTFPAVLQSSGLYSLSSVVTVPSSSLGTQTYICNVNHKPSNTKVDKRVEPKSCDKTHTCPPCPAPEFEGGPSVFLFPPKPKDTLMISRTPEVTCVVVDVSHEDPEVKFNWYVDGVEVHNAKTKPREEQYNSTYRVVSVLTVLHQDWLNGKEYKCKVSNKALPASIEKTISKAKGQPREPQVCTLPPSREEMTKNQVSLSCAVKGFYPSDIAVEWESNGQPENNYKTTPPVLDSDGSFFLVSKLTVDKSRWQQGNVFSCSVMHEALHNRFTQKSLSLSPGK chain 3: DIQLTQSPSTLSASVGDRVTITCRASESLDNYGIRFLTWFQQKPGKAPKLLMYAASNQGSGVPSRFSGSGSGTEFTLTISSLQPDDFATYYCQQTKEVPWSFGQGTKVEVKRTVAAPSVFIFPPSDEQLKSGTASVVCLLNNFYPREAKVQWKVDNALQSGNSQESVTEQDSKDSTYSLSSTLTLSKADYEKHKVYACEVTHQGLSSPVTKSFNRGEC | 5.21 nM | 16200 gMFI | 0.762 nM | 57800 gMFI | 2.28 nM | 37700 gMFI | 7.83 nM | 42700 gMFI |  | 6350 gMFI |  | 4220 gMFI |  | 4670 gMFI | 25.4 nM | 8060 gMFI |
